Data reported in article PMC12713436.

Legend:
[1] = target: secretory immunoglobulin A1 (sIgA1) from human colostrum (human (endogenous in colostrum)) (UniProt P01591); experiment: dynamic light scattering; sIgA1 titrated with FTL (0.06–1.94 mg/mL); Z-average diameter against FTL:sIgA1 molar ratio; Hill fit; apparent KD
[2] = target: secretory immunoglobulin A1 (sIgA1) from human colostrum (human (endogenous in colostrum)) (UniProt P01591); experiment: BLI; Octet RED96; sIgA1 immobilised on AR2G biosensors via amine coupling, FTL as analyte; 25 °C; PBS with 0.02% Tween-20; global fit, 1:2 bivalent analyte model
[3] = target: secretory immunoglobulin A1 (sIgA1) from human colostrum (human (endogenous in colostrum)) (UniProt P01591)
[4] = target: frutalin (FTL), galactose-specific jacalin-related lectin from Artocarpus altilis (syn. Artocarpus incisa) seeds (Artocarpus altilis (syn. Artocarpus incisa)); experiment: SEC; FTL alone on a Superdex column equilibrated in PBS + 50 mM D-galactose; single peak at Ve = 15.57 mL; apparent mass from calibration; oligomer of alpha-beta protomers

stoichiometry N [1]: 1 to 1.5 FTL:sIgA1
koff [2]: 0.00214 s⁻¹
kon [2]: 596000 M⁻¹ s⁻¹
hemagglutination titer (rabbit erythrocytes) of the preformed FTL–sIgA1 complex at 1 mg/mL, with 0 to 200 mM D-galactose (∼2^8 at 200 mM); free FTL ∼2^17 (∼2^9 at 200 mM galactose); sIgA1 alone ∼2^4 [3]: 65500 HU
stoichiometry N [4]: 2
Substance: frutalin (FTL), galactose-specific jacalin-related lectin from Artocarpus altilis (syn. Artocarpus incisa) seeds (natural protein)
